# Test results taken from patent publication US20130115681.
# Residue numbers refer to the chain shown, from its start.
# Key:
# Assay in all cases: cleavage_in_vitro
# [1] = biological target: T1, BamHI-HF E163A/E167T (Bacillus amyloliquefaciens) (UniProt P23940); conditions: NEB4, 37 C
# T1 sequence: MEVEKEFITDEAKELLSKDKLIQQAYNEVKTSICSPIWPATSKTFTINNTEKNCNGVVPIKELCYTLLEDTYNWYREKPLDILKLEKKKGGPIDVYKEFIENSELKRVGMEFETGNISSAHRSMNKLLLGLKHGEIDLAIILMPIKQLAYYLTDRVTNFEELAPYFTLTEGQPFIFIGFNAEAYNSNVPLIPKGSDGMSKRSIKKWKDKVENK
# BsmBI-HF N185Y/R232A = conditions: NEB4, 55 C
# BstXI-HF N65A = conditions: NEB4, 55 C
# BstXI = conditions: NEB4, 55 C
# [2] = biological target: T2, HindIII (Haemophilus influenzae Rd) (UniProt P43870); conditions: NEB4, 37 C; FI 250 in NEB2
# T2 sequence: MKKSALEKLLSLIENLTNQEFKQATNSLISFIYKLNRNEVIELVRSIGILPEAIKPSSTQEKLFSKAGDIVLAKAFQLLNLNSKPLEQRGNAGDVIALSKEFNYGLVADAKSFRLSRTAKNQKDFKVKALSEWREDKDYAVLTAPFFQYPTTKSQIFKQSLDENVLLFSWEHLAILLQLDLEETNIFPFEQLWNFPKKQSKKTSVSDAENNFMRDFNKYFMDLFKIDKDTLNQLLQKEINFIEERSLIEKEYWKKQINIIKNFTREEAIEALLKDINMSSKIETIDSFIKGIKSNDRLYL
# [3] = tested on: T3, NcoI-HF A2T/R31A (Nocardia corallina); conditions: NEB4, 37 C
# T3 sequence: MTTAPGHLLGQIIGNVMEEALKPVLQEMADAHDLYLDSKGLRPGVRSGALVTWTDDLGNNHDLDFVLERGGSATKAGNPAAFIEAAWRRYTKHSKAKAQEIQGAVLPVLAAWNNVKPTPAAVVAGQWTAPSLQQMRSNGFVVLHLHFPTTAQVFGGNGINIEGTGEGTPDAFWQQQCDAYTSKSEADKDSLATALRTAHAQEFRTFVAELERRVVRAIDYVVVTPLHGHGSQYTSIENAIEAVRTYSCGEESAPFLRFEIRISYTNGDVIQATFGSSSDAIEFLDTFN
# [4] = biological target: T4, PstI-HF D91A (Providencia stuartii 164) (UniProt P00640); conditions: NEB4, 37 C
# T4 sequence: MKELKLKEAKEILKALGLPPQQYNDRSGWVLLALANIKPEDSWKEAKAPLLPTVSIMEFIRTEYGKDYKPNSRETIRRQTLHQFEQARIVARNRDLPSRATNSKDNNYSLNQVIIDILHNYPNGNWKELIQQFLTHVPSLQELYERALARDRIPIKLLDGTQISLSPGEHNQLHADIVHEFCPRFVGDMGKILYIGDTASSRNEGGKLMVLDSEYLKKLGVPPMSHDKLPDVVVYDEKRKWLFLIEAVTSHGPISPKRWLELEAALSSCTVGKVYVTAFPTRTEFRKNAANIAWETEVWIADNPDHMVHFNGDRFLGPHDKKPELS
# [5] = tested on: T5, SbfI (Streptomyces species Bf-61?); conditions: NEB4, 37 C
# T5 sequence: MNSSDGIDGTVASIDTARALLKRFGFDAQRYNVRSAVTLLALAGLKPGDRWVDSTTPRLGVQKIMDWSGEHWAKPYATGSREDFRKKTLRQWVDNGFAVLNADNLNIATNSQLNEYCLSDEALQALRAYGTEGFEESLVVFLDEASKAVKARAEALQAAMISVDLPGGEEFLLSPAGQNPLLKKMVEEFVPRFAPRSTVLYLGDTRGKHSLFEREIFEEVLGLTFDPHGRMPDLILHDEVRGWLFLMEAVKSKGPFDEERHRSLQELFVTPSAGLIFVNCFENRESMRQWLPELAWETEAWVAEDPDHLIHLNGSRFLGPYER
# [6] = tested on: T6, SbfI-HF K251A (Streptomyces species Bf-61?); conditions: NEB4, 37 C
# T6 sequence: T5 sequence with K251A
# [7] = biological target: T7, ScaI-HF H193A/S201F (Streptomyces caespitosus) (UniProt O52691); conditions: NEB4, 37 C
# T7 sequence: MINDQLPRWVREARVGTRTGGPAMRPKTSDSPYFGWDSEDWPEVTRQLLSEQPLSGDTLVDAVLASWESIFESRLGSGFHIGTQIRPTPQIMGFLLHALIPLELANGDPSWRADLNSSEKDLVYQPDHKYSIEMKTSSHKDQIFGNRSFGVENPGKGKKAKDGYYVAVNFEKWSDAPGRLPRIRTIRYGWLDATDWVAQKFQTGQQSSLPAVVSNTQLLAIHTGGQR
# [8] = tested on: T8, SphI-HF K100A (Streptomyces phaeochromogenes); conditions: NEB4, 37 C
# T8 sequence: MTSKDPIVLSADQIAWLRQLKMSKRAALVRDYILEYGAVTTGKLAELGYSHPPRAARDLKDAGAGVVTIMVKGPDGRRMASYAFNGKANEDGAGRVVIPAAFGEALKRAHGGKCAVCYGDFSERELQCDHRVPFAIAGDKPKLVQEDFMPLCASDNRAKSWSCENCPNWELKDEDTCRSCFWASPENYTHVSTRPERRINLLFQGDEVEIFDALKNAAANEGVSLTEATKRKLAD
# [9] = biological target: T9, SalI (Streptomyces albus G) (UniProt Q53608); conditions: NEB4, 37 C
# T9 sequence: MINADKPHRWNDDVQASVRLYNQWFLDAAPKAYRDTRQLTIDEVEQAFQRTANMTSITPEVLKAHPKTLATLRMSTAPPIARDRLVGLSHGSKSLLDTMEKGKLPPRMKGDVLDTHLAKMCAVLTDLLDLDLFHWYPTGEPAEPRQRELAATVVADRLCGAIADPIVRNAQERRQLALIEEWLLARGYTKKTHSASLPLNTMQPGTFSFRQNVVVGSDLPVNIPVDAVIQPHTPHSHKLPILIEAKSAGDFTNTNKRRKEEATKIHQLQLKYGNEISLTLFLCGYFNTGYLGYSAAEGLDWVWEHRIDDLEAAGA
# [10] = biological target: T10, SalI-HF R107A (Streptomyces albus G) (UniProt Q53608); conditions: NEB4, 37 C
# T10 sequence: T9 sequence with R107A
# [11] = tested on: T11, BspQI-HF K279P/R388F (Bacillus sphaericus); conditions: NEB4, 50 C
# T11 sequence: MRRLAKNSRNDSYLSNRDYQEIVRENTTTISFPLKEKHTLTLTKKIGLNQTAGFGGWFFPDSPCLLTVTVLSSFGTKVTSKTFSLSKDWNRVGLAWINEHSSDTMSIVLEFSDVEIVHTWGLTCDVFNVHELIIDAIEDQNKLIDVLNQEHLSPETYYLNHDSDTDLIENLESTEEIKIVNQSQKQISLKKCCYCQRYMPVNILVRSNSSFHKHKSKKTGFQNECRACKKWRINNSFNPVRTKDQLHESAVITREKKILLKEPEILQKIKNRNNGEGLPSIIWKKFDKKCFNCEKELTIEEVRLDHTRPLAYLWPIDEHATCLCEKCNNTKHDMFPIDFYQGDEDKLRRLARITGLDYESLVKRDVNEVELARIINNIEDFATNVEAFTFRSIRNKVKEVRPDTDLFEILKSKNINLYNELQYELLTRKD
substance,measurement,setting,value
lambda phage DNA,activity (fidelity index),[1],4000
same,activity (fidelity index),BsmBI-HF N185Y/R232A,500
same,activity (fidelity index),BstXI-HF N65A,250
same,activity (fidelity index),BstXI,4
same,activity (fidelity index),[2],32
same,activity (fidelity index),[3],64000
same,activity (fidelity index),[4],4000
same,activity (fidelity index),[5],8
same,activity (fidelity index),[6],250
same,activity (fidelity index),[7],1000
same,activity (fidelity index),[8],8000
HindIII-digested lambda DNA,activity (fidelity index),[9],1
same,activity (fidelity index),[10],32000
pUC19,activity (fidelity index),[11],4000
